# Assay results taken from US20100322974A1, “Targeting the histone code as a bacterial strategy for selectively modulating gene expression” (priority 2005, published 2010).
# B1: OspF phosphatase (protein)
# chain: MPIKKPCLKLNLDSLNVVKSEIPQMLSANERLKNNFNILYNQIRQYPAYYFKVASNVPTYSDICQFFSVMYQGFQIVNHSGDVFIHACRENPQSKGDFVGDKFHISIAREQVPLAFQILSGLLFSEDSPIDKWKITDMNRVSQQSRVGIGAQFTLYVKSDQECSQYSALLLHKIRQFIMCLESNLLRSKIAPGEYPASDVRPEDWKYVSYRNELRSDRDGSERQEQMLREEPFYRLMIE
# B2: MKP1 (enzyme, UniProt P28562 1-367, looked up, species assumed)
# Dual specificity protein phosphatase 1: MVMEVGTLDAGGLRALLGERAAQCLLLDCRSFFAFNAGHIAGSVNVRFSTIVRRRAKGAMGLEHIVPNAELRGRLLAGAYHAVVLLDERSAALDGAKRDGTLALAAGALCREARAAQVFFLKGGYEAFSASCPELCSKQSTPMGLSLPLSTSVPDSAESGCSSCSTPLYDQGGPVEILPFLYLGSAYHASRKDMLDALGITALINVSANCPNHFEGHYQYKSIPVEDNHKADISSWFNEAIDFIDSIKNAGGRVFVHCQAGISRSATICLAYLMRTNRVKLDEAFEFVKQRRSIISPNFSFMGQLLQFESQVLAPHCSAEAGSPAMAVLDRGTSTTTVFNFPVSIPVHSTNSALSYLQSPITTSPSC
# What was measured:
# phospho Erk2-GST = assay: In vitro phosphatase assay on phospho Erk2-GST (Western blot); settings: for dephosphorylation of phospho-Erk2 substrate: purified protein, Western blot with anti phospho-Erk
# [1] = tested on: histone H3 phosphorylation at Ser 10; assay: H3 pS10 signal in HeLa cells infected with the ospF strain after kinase inhibitor pretreatment; type: cell-based; settings: both inhibitors together, U0126 10 μM and SB203180 2.5 μM, 60 min pretreatment, 30 min infection
# endogenous Erk = assay: Erk phosphorylation in transfected HeLa cells stimulated by PMA; settings: transfected expression plasmid, PMA stimulation
# OspF = OspF (Shigella flexneri, UniProt Q8VSP9, R19K/S66F)
# p38 MAP kinases = assay: p38 phosphorylation in transfected HeLa cells stimulated by TNF; type: cell-based; settings: transfected plasmid, TNF stimulation
# Protocol: IF was performed with anti-OspF antibodies.
# phospho p38-GST = assay: In vitro phosphatase assay on purified phospho p38-GST; type: biochemical; settings: 50 nM substrate
# [2] = biological target: 33P-labeled Erk2 (GST-Erk2 fusion protein phosphorylated in vitro by MEK1) [GST: P08515]
# [3] = tested on: histone H3 K14 acetylation; assay: Trichostatin-induced hyper acetylation on K14 in HeLa cells overexpressing OspF; type: cell-based
# Description: A plasmid encoding myc-labelled OspF was used to overexpress OspF in HeLa cells. […] Thus, variations of the levels of phosphoacetylated histone H3 are likely to reflect the sole capacity of OspF to reduce the level of phosphorylation at Ser10.
# ^33P-labeled Erk2 = biological target: T1, ^33P-labeled Erk2 (Homo sapiens, UniProt P28482); assay: 33P-labeled Erk2 phosphatase assay, steady state kinetics; type: biochemical; settings: pH 8, 30° C., 100 nM phosphatase, 10 minutes, Michaelis-Menten fit; for Km: read-out: Km of Erk2 dephosphorylation
# T1 construct: made in house
# Description: In vitro phosphatase assay.
# phospho JNK1 = assay: In vitro phosphatase assay on purified phospho JNK1 Histidine; type: biochemical; settings: 50 nM substrate
# IL-12 = assay: Cytokine production in infected lungs (murine pulmonary infection, ELISA); type: in vivo, mice; settings: lungs infected with M90T or ospF strain, 24 hours post-infection
# Protocol: The cytokine/chemokine network induced upon infection with Shigella flexneri was analyzed by comparing the profiles obtained upon infection with the invasive strain carrying the virulence plasmid (INV+) and the non-invasive, plasmidless strain (INV−). The murine model of pulmonary infection was used since it was the only valid model to analyze the specific host immune response upon Shigella infection. Following infection with INV−, a Th1 type-network (IL-12, IL-18, CCL9, CCL10, CCL13, and CCL4) was induced. In contrast, a Th2/Tr1 profile (IL-10, CCL1, CCL24 and CCL2) was induced upon infection with INV+. The difference observed was not due to the bacterial dose used for the infection, but was dependent on the presence or absence of the virulence plasmid.
# Some of these bacterial effectors are injected within the host cells by a type III secretion apparatus. Use of different bacterial mutants, has highlighted that the bacterial effectors involved in the immunomodulation were effectors secreted by the type III-secretion apparatus. Finally, OspF, a type III-secreted bacterial effector was responsible for the control of IL-12 production (FIG. 10).
# NF-κB = assay: TNF-α-induced NF-κB reporter construct in Caco 2 cells; type: cell-based, human; settings: overexpression in Caco 2 cells
# Description: In addition to the classical MAPK-dependent target genes, OspF also repressed expression of some NF-κB-dependent chemokine genes such as IL-8. The IL-8 promoter contains an NF-κB binding site essential for expression of this gene (Hoffmann et al., 2002). Therefore, the inventors looked whether OspF interferes with the NF-κB signaling pathway.
# [4] = tested on: histone H3 purified from calf thymus; assay: Direct dephosphorylation of histone H3 or H3 tail peptides in vitro; type: biochemical; settings: 2 hours 30° C., even at 100 fold increased enzyme concentration
# [5] = tested on: histone H3 phosphorylation at Ser 10; assay: H3 pS10 induced by okadaic acid in HeLa cells overexpressing OspF (immunofluorescence); type: cell-based; settings: 200 nM okadaic acid 3 hours
# Protocol: (A) HeLa cells were left untreated (ns) or infected with the WT or the ospF strain at the indicated time. Indirect immunofluorescence detection was performed with anti-phospho-histone H3 S10 polyclonal antibody. (B) HeLa cells were synchronized by a double thymidine block (2 mM thymidine) and left untreated (ns) or infected with the WT or the ospF strain at the indicated time. Immunoblots were probed with anti-H3 phospho S10 (H3 pS10), anti-H3 methyl K9-phospho S10 (H3 metK9-pS10), anti-H3 phospho S10 acetyl-K14 (H3 p-S10/Ac-K14), anti Histone H3 polyclonal anti-pp 38 and pErk antibodies. (C) HeLa cells were transfected with pRK5myc-OspF vector and treated with 200 nM okadaic acid for 3 hours. IF was performed with anti-myc (red) and anti-H3 methyl K9-pS10 (green) antibodies. […] (D) One micogram of calf-thymus histone (Sigma) was incubated with 300 ng of His-OspF or with 120 U of λ phosphatase for 2 hours at 30° C. Western blot was performed with an anti-metK9-pS10 antibody. (E) One micogram of peptide metK9-S10 was spotted onto a nitrocellulose membrane that was incubated with buffers, 5 μg/ml of OspF, or 2000 U/ml of lambda phosphatase for 2 hours at 30° C. Western blot was performed with an anti-metK9-pS10 antibody. (F) HeLa cells were pretreated for 60 min with either the MEK1 inhibitor U0126 (10 μM) or the p38 inhibitor SB203180 (2.5 μM) or both. […]
# IL-8 promoter = assay: ChIP with anti-OspF antibody at the IL-8 promoter in transfected HeLa cells; type: cell-based
# Protocol: (A) DNA isolated from sonicated cross-linked chromatin fragments used as inputs for Chlp assays run on a 2% agarose/TAE gel. (B) Cross-linked chromatin fragments were prepared from Caco 2 cells left untreated (ns) or infected with the WT or the ospF strains at the indicated time. For each time point, aliquots were immunoprecipitated with irrelevant IgG, anti-H3 methyl K9-pS10, or anti-p65 antibodies. Histograms show the results obtained by Real-Time PCR analysis using amplicon from the promoter region of IL-8. Data are expressed as relative enrichment as compared to the result obtained with the corresponding IgG that have been immunoprecipitated at the same time point. […] (C) The data are given as in figure (B) except that the aliquots were immunoprecipitated with irrelevant IgG or anti-RNAPII antibodies. […]
# To address whether MAPK-induced H3pS10 in the vicinity of the IL-8 promoter, HeLa cells expressing the plasmids encoding WT ospF, or as control, a C-terminal deletion mutant of the last 30 amino acids ospF (1-221) unable to localize within the nucleus (FIG. 7G) were processed for chromatin immunoprecipitation (ChIP) assay using the anti-OspF antibody and the enrichment of OspF at the IL-8 promoter was analyzed by Real-Time quantitative PCR.
# In unstimulated cells, no signal was detected at the IL-8 promoter (FIG. 7H). […]
# [6] = tested on: 33P-labeled Erk2 (GST-Erk2 fusion protein phosphorylated in vitro by MEK1) [GST: P08515]; remark: listed apart in the source
# T1 sequence (P28482 whole entry): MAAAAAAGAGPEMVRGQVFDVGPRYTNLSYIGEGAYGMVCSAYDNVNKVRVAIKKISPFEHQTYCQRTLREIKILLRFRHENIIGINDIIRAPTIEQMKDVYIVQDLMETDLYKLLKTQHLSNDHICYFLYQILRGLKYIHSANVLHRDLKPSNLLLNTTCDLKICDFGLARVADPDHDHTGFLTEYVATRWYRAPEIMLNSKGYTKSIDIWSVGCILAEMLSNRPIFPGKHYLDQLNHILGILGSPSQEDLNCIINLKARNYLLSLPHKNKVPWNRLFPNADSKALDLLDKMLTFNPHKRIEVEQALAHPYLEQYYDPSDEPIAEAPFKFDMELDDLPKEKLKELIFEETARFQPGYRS
molecule,measurement,setting,value
D219: OspF with aspartate D219 mutated into asparagine,dephosphorylation of phospho-Erk2 substrate,phospho Erk2-GST,did not impair phosphatase activity
C[S+]([O-])c1ccc(-c2nc(-c3ccc(F)cc3)c(-c3ccncc3)[nH]2)cc1 (centres unmarked) [SB 203180],H3 pS10 signal induced by the ospF strain,[1],fully inhibited
His to Leu mutation at position 172: OspF with His to Leu mutation at position 172,ability to dephosphorylate Erk / prevent Erk phosphorylation in HeLa cells,endogenous Erk,retention of phosphatase activity
N#CC(=C(/N)Sc1ccccc1N)/C(C#N)=C(\N)Sc1ccccc1N [U0126],H3 pS10 signal induced by the ospF strain,[1],fully inhibited
O=C(O)CN(CCN(CC(=O)O)CC(=O)O)CC(=O)O [EDTA],OspF activity blocked by EDTA (metal dependence),OspF,not blocked
myc-labelled OspF: myc labelled OspF expressed from plasmid pRK5myc-OspF,ability to dephosphorylate Erk / prevent Erk phosphorylation in HeLa cells,endogenous Erk,prevented phosphorylation
same,prevention of p38 phosphorylation in HeLa cells,p38 MAP kinases,prevented phosphorylation
C1805: OspF with Cys 180 mutated into Ser (printed C1805),ability to dephosphorylate Erk / prevent Erk phosphorylation in HeLa cells,endogenous Erk,None of the mutations
B1,dephosphorylation of pT183 and pY185 residues of Erk,"phospho Erk2-GST; 500 ng OspF, 50 ng phospho Erk2-GST, 1 hour 30° C.",dephosphorylated both Thr and Tyr residues
same,dephosphorylation of phospho-Erk2 substrate,phospho Erk2-GST,directly dephosphorylated
same,dephosphorylation of purified phospho p38,phospho p38-GST,directly dephosphorylated
same,"Km (release of radioactive inorganic phosphate, Michaelis-Menten fit, pH 8, 30° C., 100 nM enzyme)",[2],204 nM
same,"Vmax (release of radioactive inorganic phosphate, Michaelis-Menten fit, pH 8, 30° C., 100 nM enzyme)",[2],9.89 pM s^-1
same,"kcat (release of radioactive inorganic phosphate, Michaelis-Menten fit, pH 8, 30° C., 100 nM enzyme)",[2],0.0001 s^-1
same,trichostatin-induced hyper acetylation on K14,[3],did not impair
same,Vmax of Erk2 dephosphorylation,^33P-labeled Erk2,9.89 pM/s
same,kcat of Erk2 dephosphorylation,^33P-labeled Erk2,0.0001 s⁻¹
same,Km,^33P-labeled Erk2,0.204 µM
same,dephosphorylation of purified phospho JNK1,phospho JNK1,failed to dephosphorylate
same,IL-12 production in vivo,IL-12,down regulated
same,TNF-α-induced activation of a NF-κB reporter construct,NF-κB,did not impair
same,direct dephosphorylation of histone H3 and metK9-pS10 / pS10 peptides,[4],did not directly dephosphorylate
same,induction of H3 pS10 by okadaic acid,[5],efficiently prevented
same,recruitment of OspF at the IL-8 promoter,IL-8 promoter; TNF-α stimulation,transient recruitment
same,OspF at the IL-8 promoter,IL-8 promoter; unstimulated cells,not detectable
B2,"Km (release of radioactive inorganic phosphate, Michaelis-Menten fit, 100 nM enzyme)",[6],0.229 µM
same,"Vmax (release of radioactive inorganic phosphate, Michaelis-Menten fit, 100 nM enzyme)",[6],6.01 pM/s
same,"dephosphorylation of 33P-labeled Erk2 (gel mobility in SDS-PAGE/autoradiography, phospho-Erk Western blot)",[6],Dephosphorylation of Erk2 by both enzymes was confirmed by the gel-mobility increase of the substrate
same,"kcat (release of radioactive inorganic phosphate, Michaelis-Menten fit, 100 nM enzyme)",[6],0.0006 s⁻¹
same,Vmax of Erk2 dephosphorylation,^33P-labeled Erk2,6.01 pM/s
same,kcat of Erk2 dephosphorylation,^33P-labeled Erk2,0.0006 s⁻¹
same,Km,^33P-labeled Erk2,0.229 µM
